# Measurements from patent US20180155451A1 (published 2018).
# T1: FcγRIIa H (human, UniProt P12318 34-217)
# T1 construct: extracellular domain; also called FcγRIIa type H; 2aH
# T1 sequence (looked up): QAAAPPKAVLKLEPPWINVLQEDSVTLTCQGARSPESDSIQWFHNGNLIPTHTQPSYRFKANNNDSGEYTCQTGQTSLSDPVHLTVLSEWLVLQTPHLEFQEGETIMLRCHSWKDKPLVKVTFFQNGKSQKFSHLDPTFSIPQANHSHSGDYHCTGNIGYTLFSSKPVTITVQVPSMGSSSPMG
# T2: FcγRIIb (human, UniProt P31994 43-217)
# T2 construct: extracellular domain; also called 2b
# T2 sequence (looked up): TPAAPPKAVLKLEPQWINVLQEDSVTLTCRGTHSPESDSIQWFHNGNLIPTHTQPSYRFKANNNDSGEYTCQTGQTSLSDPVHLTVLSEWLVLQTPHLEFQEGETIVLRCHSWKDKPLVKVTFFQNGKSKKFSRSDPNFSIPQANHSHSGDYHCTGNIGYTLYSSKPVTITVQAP
# Key:
# FcγRIIa H [1] = biological target: T1, FcγRIIa H; assay: SPR; He/Con_2aH divided by He/Con_2b (FcγRIIb)
# Protocol: (§1) The heterodimerized antibodies He Abs in which one of the H chains was introduced with an alteration were assayed for their binding activities to each activating FcγR and inhibitory FcγR according to the method described in Example 4. […] The activating FcγRs in FIGS. 26, 27, 28, and 29 are FcγRIa, FcγRIIa (R), FcγRIIa (H), and FcγRIIIa, respectively.
# (§2) Analysis of interaction between objective antibody and the FcγR was carried out using Biacore T100 (GE Healthcare). HBS-EP+ (GE Healthcare) was used as the running buffer, and the measurement temperature was set to 25° C. Chips produced by immobilizing the antigen peptide by the amine coupling method to a Series S Sencor Chip CM5 (GE Healthcare), or alternatively, chips produced by allowing preliminarily biotinylated antigen peptides to interact with and immobilize onto a Series S Sensor Chip SA (certified) (GE Healthcare) were used. Antibodies of interest were captured onto an antigen peptide-immobilized chip, and allowed to interact to each FcγR diluted with running buffer. To regenerate and repeatedly use the chip, the antibodies captured on the chip were washed off by reacting 10 mM glycine-HCl, pH 1.5.
# FcγRIIb = biological target: T2, FcγRIIb; assay: SPR (Biacore), relative binding vs GpH7-A5/GpH7-B3/GpL16-k0
# Protocol: as §1, §2
# FcγRIIa H [2] = biological target: T1, FcγRIIa H; assay: as above
# Protocol: as §1, §2
binder,measurement,setting,value
"GpH7-A5/GpH7-B3 variant H268_05P/GpL16-k0 (antibody, human IgG1, kappa, heterodimerized IgG1, mutation in one H chain only; also called He Ab) heavy 1: not shown heavy 2: not shown light: DIVMTQSPLSLPVTPGEPASISCQASESLVHSNRNTYLHWYLQKPGQSPQLLIYKVSNRFSGVPDRFSGSGSGTDFTLKISRVEAEDVGVYYCSQNTHVPPTFGQGTKVEIERTVAAPSVFIFPPSDEQLKSGTASVVCLLNNFYPREAKVQWKVDNALQSGNSQESVTEQDSKDSTYSLSSTLTLSKADYEKHKVYACEVTHQGLSSPVTKSFNRGEC",He_2aH/2b (IIaH/IIb),FcγRIIa H [1],0.7 ratio
same,He/Con_2b,FcγRIIb,116 % of control He Ab (=100)
same,He/Con_2aH,FcγRIIa H [2],81.8 % of control He Ab (=100)
"GpH7-A5/GpH7-B3 variant H268_09D/GpL16-k0 (antibody, human IgG1, kappa, heterodimerized IgG1, mutation in one H chain only; also called He Ab) heavy 1: not shown heavy 2: not shown light: DIVMTQSPLSLPVTPGEPASISCQASESLVHSNRNTYLHWYLQKPGQSPQLLIYKVSNRFSGVPDRFSGSGSGTDFTLKISRVEAEDVGVYYCSQNTHVPPTFGQGTKVEIERTVAAPSVFIFPPSDEQLKSGTASVVCLLNNFYPREAKVQWKVDNALQSGNSQESVTEQDSKDSTYSLSSTLTLSKADYEKHKVYACEVTHQGLSSPVTKSFNRGEC",He_2aH/2b (IIaH/IIb),FcγRIIa H [1],0.55 ratio
same,He/Con_2b,FcγRIIb,239 % of control He Ab (=100)
same,He/Con_2aH,FcγRIIa H [2],133 % of control He Ab (=100)
"GpH7-A5/GpH7-B3 variant H268_10E/GpL16-k0 (antibody, human IgG1, kappa, heterodimerized IgG1, mutation in one H chain only; also called He Ab) heavy 1: not shown heavy 2: not shown light: DIVMTQSPLSLPVTPGEPASISCQASESLVHSNRNTYLHWYLQKPGQSPQLLIYKVSNRFSGVPDRFSGSGSGTDFTLKISRVEAEDVGVYYCSQNTHVPPTFGQGTKVEIERTVAAPSVFIFPPSDEQLKSGTASVVCLLNNFYPREAKVQWKVDNALQSGNSQESVTEQDSKDSTYSLSSTLTLSKADYEKHKVYACEVTHQGLSSPVTKSFNRGEC",He_2aH/2b (IIaH/IIb),FcγRIIa H [1],0.54 ratio
same,He/Con_2b,FcγRIIb,230 % of control He Ab (=100)
same,He/Con_2aH,FcγRIIa H [2],124 % of control He Ab (=100)
"GpH7-A5/GpH7-B3 variant H268_13S/GpL16-k0 (antibody, human IgG1, kappa, heterodimerized IgG1, mutation in one H chain only; also called He Ab) heavy 1: not shown heavy 2: not shown light: DIVMTQSPLSLPVTPGEPASISCQASESLVHSNRNTYLHWYLQKPGQSPQLLIYKVSNRFSGVPDRFSGSGSGTDFTLKISRVEAEDVGVYYCSQNTHVPPTFGQGTKVEIERTVAAPSVFIFPPSDEQLKSGTASVVCLLNNFYPREAKVQWKVDNALQSGNSQESVTEQDSKDSTYSLSSTLTLSKADYEKHKVYACEVTHQGLSSPVTKSFNRGEC",He_2aH/2b (IIaH/IIb),FcγRIIa H [1],0.7 ratio
same,He/Con_2b,FcγRIIb,160 % of control He Ab (=100)
same,He/Con_2aH,FcγRIIa H [2],112 % of control He Ab (=100)
"GpH7-A5/GpH7-B3 variant H268_18N/GpL16-k0 (antibody, human IgG1, kappa, heterodimerized IgG1, mutation in one H chain only; also called He Ab) heavy 1: not shown heavy 2: not shown light: DIVMTQSPLSLPVTPGEPASISCQASESLVHSNRNTYLHWYLQKPGQSPQLLIYKVSNRFSGVPDRFSGSGSGTDFTLKISRVEAEDVGVYYCSQNTHVPPTFGQGTKVEIERTVAAPSVFIFPPSDEQLKSGTASVVCLLNNFYPREAKVQWKVDNALQSGNSQESVTEQDSKDSTYSLSSTLTLSKADYEKHKVYACEVTHQGLSSPVTKSFNRGEC",He_2aH/2b (IIaH/IIb),FcγRIIa H [1],0.72 ratio
same,He/Con_2b,FcγRIIb,156 % of control He Ab (=100)
same,He/Con_2aH,FcγRIIa H [2],112 % of control He Ab (=100)
"GpH7-A5/GpH7-B3 variant H268_19Q/GpL16-k0 (antibody, human IgG1, kappa, heterodimerized IgG1, mutation in one H chain only; also called He Ab) heavy 1: not shown heavy 2: not shown light: DIVMTQSPLSLPVTPGEPASISCQASESLVHSNRNTYLHWYLQKPGQSPQLLIYKVSNRFSGVPDRFSGSGSGTDFTLKISRVEAEDVGVYYCSQNTHVPPTFGQGTKVEIERTVAAPSVFIFPPSDEQLKSGTASVVCLLNNFYPREAKVQWKVDNALQSGNSQESVTEQDSKDSTYSLSSTLTLSKADYEKHKVYACEVTHQGLSSPVTKSFNRGEC",He_2aH/2b (IIaH/IIb),FcγRIIa H [1],0.77 ratio
same,He/Con_2b,FcγRIIb,133 % of control He Ab (=100)
same,He/Con_2aH,FcγRIIa H [2],102 % of control He Ab (=100)
"GpH7-A5/GpH7-B3 variant K326_02A/GpL16-k0 (antibody, human IgG1, kappa, heterodimerized IgG1, mutation in one H chain only; also called He Ab) heavy 1: not shown heavy 2: not shown light: DIVMTQSPLSLPVTPGEPASISCQASESLVHSNRNTYLHWYLQKPGQSPQLLIYKVSNRFSGVPDRFSGSGSGTDFTLKISRVEAEDVGVYYCSQNTHVPPTFGQGTKVEIERTVAAPSVFIFPPSDEQLKSGTASVVCLLNNFYPREAKVQWKVDNALQSGNSQESVTEQDSKDSTYSLSSTLTLSKADYEKHKVYACEVTHQGLSSPVTKSFNRGEC",He_2aH/2b (IIaH/IIb),FcγRIIa H [1],0.76 ratio
same,He/Con_2b,FcγRIIb,139 % of control He Ab (=100)
same,He/Con_2aH,FcγRIIa H [2],106 % of control He Ab (=100)
"GpH7-A5/GpH7-B3 variant K326_03V/GpL16-k0 (antibody, human IgG1, kappa, heterodimerized IgG1, mutation in one H chain only; also called He Ab) heavy 1: not shown heavy 2: not shown light: DIVMTQSPLSLPVTPGEPASISCQASESLVHSNRNTYLHWYLQKPGQSPQLLIYKVSNRFSGVPDRFSGSGSGTDFTLKISRVEAEDVGVYYCSQNTHVPPTFGQGTKVEIERTVAAPSVFIFPPSDEQLKSGTASVVCLLNNFYPREAKVQWKVDNALQSGNSQESVTEQDSKDSTYSLSSTLTLSKADYEKHKVYACEVTHQGLSSPVTKSFNRGEC",He_2aH/2b (IIaH/IIb),FcγRIIa H [1],0.55 ratio
same,He/Con_2b,FcγRIIb,175 % of control He Ab (=100)
same,He/Con_2aH,FcγRIIa H [2],97 % of control He Ab (=100)
